According to patent publication US20250043004A1 (Janssen / Centocor, published 2025):

How the values were obtained:
CD28 [1] = molecular target: T1, CD28 (human, UniProt P10747 19-220); experiment: flow cytometry, human pan T cells, donor 2
T1 construct: whole, on cells; On human pan T cells and on H929 myeloma cells; the assay field says which; also called Cluster of Differentiation 28
Protocol: (§1) Binding assay. […] Post Pan T cell isolation. 0.1×10⁶ cells were seeded per well of a 96 well V-bottom plate. Cells were stained with the fixable violet live/dead stain (L34955, Thermofisher) for 20 mins on ice in dark according to the manufacturer's protocol. Post staining cells were washed with FACS buffer (PBS+2% FBS) by spinning at 1500 rpm for 5 mins. Supernatant was discarded and cells were suspended in 100 μl the respective antibody dilutions with a starting concentration of 5 g/ml and 3-fold serial dilutions. Antibody dilutions were prepared in FACS buffer. Cells were incubated with the antibody dilutions for 30 mins at 37° C. At the end of the incubation period, cells were washed twice with FACS buffer as above followed by staining with PE conjugated Goat polyclonal antibody to human IgG (ab98596, Abcam) at a 1:50 dilution in FACS buffer. Cells were incubated with the secondary antibody for 30 mins on ice. At the end of incubation period the cells were washed with FACS buffer as above. […] Cells were pelleted and resuspended in FACS buffer for acquisition on the NOVOCYTE flow cytometer (ACEA Biosciences). […] Samples were analyzed by gating on the live cells and percentage binding was obtained by subtracting the background fluorescence from the secondary only control.

CD28 [2] = molecular target: T1, CD28; experiment: flow cytometry, human pan T cells, donor 2; remark: listed apart in the source
CD28 [3] = molecular target: T1, CD28; experiment: flow cytometry, H929 cells; antibody has no BCMA arm
CD28 [4] = molecular target: T1, CD28; experiment: flow cytometry, H929 cells (BCMA+, CD28+); whole-cell EC50, antibody has BCMA and CD28 arms
BCMA [5] = molecular target: T2, BCMA (human, UniProt Q02223 1-184); experiment: as above
T2 construct: whole, on cells; On NCI-H929 myeloma cells, which also carry CD28; also called B-cell maturation antigen; TNFRSF17
T2 sequence (looked up): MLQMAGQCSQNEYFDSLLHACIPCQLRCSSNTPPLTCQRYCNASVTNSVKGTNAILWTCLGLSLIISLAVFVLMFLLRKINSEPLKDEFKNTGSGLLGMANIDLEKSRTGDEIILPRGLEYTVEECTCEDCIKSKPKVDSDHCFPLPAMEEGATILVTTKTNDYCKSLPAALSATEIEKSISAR

BCMA [6] = molecular target: T2, BCMA; experiment: flow cytometry, H929 cells; antibody has no CD28 arm
[7] = molecular target: T3, T cell receptor Vβ17 on human T cells (human); experiment: flow cytometry, human pan T cells, donor 1; antibody has no CD28 arm
T3 construct: whole, on cells; Vβ17+ fraction (about 5%) of human pan T cells, αβ-enriched T cells or M1-stimulated T cells; also called TCR Vβ17; Vb17

[8] = molecular target: T3, T cell receptor Vβ17 on human T cells; experiment: flow cytometry, human pan T cells, donor 2; antibody has no CD28 arm
CD28 [9] = molecular target: T1, CD28; experiment: flow cytometry, human pan T cells
Protocol: Post Pan T cell isolation. 0.1×10⁶ cells were seeded per well of a 96 well V-bottom plate. Cells were stained with the fixable violet live/dead stain (L34955, Thermofisher) for 20 mins on ice in dark according to the manufacturer's protocol. Post staining cells were washed with FACS buffer (PBS+2% FBS) by spinning at 1500 rpm for 5 mins. Supernatant was discarded and cells were suspended in 100 μl the respective antibody dilutions with a starting concentration of 5 g/ml and 3-fold serial dilutions. Antibody dilutions were prepared in FACS buffer. Cells were incubated with the antibody dilutions for 30 mins at 37° C. At the end of the incubation period, cells were washed twice with FACS buffer as above followed by staining with PE conjugated Goat polyclonal antibody to human IgG (ab98596, Abcam) at a 1:50 dilution in FACS buffer. Cells were incubated with the secondary antibody for 30 mins on ice. At the end of incubation period the cells were washed with FACS buffer as above. […] Cells were pelleted and resuspended in FACS buffer for acquisition on the NOVOCYTE flow cytometer (ACEA Biosciences). For binding assays using the H929 cells, 0.1×10⁶ H929 cells were seeded per well of a 96 well V-bottom plate and stained as above. Samples were analyzed by gating on the live cells and percentage binding was obtained by subtracting the background fluorescence from the secondary only control. […]

CD28 [10] = molecular target: T1, CD28; experiment: flow cytometry, H929 cells (BCMA+, CD28+); whole-cell EC50, antibody has BCMA and CD28 arms; remark: listed apart in the source
Protocol: (§2) Post Pan T cell isolation. 0.1×10⁶ cells were seeded per well of a 96 well V-bottom plate. Cells were stained with the fixable violet live/dead stain (L34955, Thermofisher) for 20 mins on ice in dark according to the manufacturer's protocol. Post staining cells were washed with FACS buffer (PBS+2% FBS) by spinning at 1500 rpm for 5 mins. Supernatant was discarded and cells were suspended in 100 μl the respective antibody dilutions with a starting concentration of 5 g/ml and 3-fold serial dilutions. Antibody dilutions were prepared in FACS buffer. Cells were incubated with the antibody dilutions for 30 mins at 37° C. At the end of the incubation period, cells were washed twice with FACS buffer as above followed by staining with PE conjugated Goat polyclonal antibody to human IgG (ab98596, Abcam) at a 1:50 dilution in FACS buffer. Cells were incubated with the secondary antibody for 30 mins on ice. At the end of incubation period the cells were washed with FACS buffer as above. […] Cells were pelleted and resuspended in FACS buffer for acquisition on the NOVOCYTE flow cytometer (ACEA Biosciences). For binding assays using the H929 cells, 0.1×10⁶ H929 cells were seeded per well of a 96 well V-bottom plate and stained as above. Samples were analyzed by gating on the live cells and percentage binding was obtained by subtracting the background fluorescence from the secondary only control.

BCMA [11] = molecular target: T2, BCMA; experiment: as above; remark: listed apart in the source
Protocol: as §2

PSMA [12] = molecular target: T4, PSMA (human, UniProt Q04609 1-750); experiment: flow cytometry, C4-2B cells
T4 construct: whole, on cells; On LnCaP and C4-2B cells; also called prostate-specific membrane antigen

PSMA [13] = molecular target: T4, PSMA; experiment: flow cytometry, LnCaP cells
CD28 [14] = molecular target: T1, CD28; experiment: flow cytometry, human pan T cells, donor 1
Protocol: as §1

CD28 [15] = molecular target: T1, CD28; experiment: flow cytometry, human pan T cells, donor 1; remark: listed apart in the source

T3 sequence (A0A075B6N1 22-114): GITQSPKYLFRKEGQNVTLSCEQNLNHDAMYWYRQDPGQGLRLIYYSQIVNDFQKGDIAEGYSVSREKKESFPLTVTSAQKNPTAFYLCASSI
T4 sequence (Q04609 whole entry): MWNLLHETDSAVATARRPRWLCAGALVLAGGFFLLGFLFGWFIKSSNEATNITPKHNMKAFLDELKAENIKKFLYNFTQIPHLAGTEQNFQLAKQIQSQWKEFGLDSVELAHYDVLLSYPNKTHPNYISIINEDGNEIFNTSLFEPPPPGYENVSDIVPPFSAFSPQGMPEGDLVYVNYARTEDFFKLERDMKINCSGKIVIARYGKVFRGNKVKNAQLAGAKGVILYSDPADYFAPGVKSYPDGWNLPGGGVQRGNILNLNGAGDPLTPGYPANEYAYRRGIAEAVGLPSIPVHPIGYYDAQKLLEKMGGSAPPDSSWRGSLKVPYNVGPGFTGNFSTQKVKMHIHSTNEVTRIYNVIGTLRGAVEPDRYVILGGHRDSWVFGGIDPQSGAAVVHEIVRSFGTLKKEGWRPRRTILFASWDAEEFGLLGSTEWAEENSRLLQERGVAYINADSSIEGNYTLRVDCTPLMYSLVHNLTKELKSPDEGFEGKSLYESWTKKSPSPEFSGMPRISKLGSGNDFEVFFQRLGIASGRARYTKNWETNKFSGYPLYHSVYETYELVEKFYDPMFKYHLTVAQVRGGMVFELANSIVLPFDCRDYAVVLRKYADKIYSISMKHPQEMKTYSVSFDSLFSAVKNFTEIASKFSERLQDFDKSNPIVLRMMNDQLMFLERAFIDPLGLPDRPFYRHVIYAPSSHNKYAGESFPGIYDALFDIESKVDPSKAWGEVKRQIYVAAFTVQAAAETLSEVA

B1: VB28B33 (bispecific antibody)
scFv: not shown
heavy: QVQLQQPGSELVRPGASVKLSCKASGYTFTSYWMHWVKQRHGQGLEWIGNIYPGSGRTNYDEKFKSKGTLTVDTSSRTAYMHLSSLTSEDSAVYYCTREHYGSNSHPMDYWGQGTSVTVSSASTKGPSVFPLAPSSKSTSGGTAALGCLVKDYFPEPVTVSWNSGALTSGVHTFPAVLQSSGLYSLSSVVTVPSSSLGTQTYICNVNHKPSNTKVDKKVEPKSCDKTHTCPPCPAPEAAGGPSVFLFPPKPKDTLMISRTPEVTCVVVSVSHEDPEVKFNWYVDGVEVHNAKTKPREEQYNSTYRVVSVLTVLHQDWLNGKEYKCKVSNKALPAPIEKTISKAKGQPREPQVYTLPPSREEMTKNQVSLSCAVKGFYPSDIAVEWESNGQPENNYKTTPPVLDSDGSFFLVSKLTVDKSRWQQGNVFSCSVMHEALHNRFTQKSLSLSPGK
light: DIQMTQSPSSLSASVGDRVTITCRSSQSLVHSSGNTYLHWYQQKPGKAPKFLIYKVSNRFSGVPSRFSGSGSGTDFTLTISSLQPEDFATYYCSQSTHVPFTFGQGTKLEIKGGSEGKSSGSGSESKSTGGSQVQLQESGPGLVKPSETLSLTCTVSGYSITSGYFWNWIRQPPGKGLEWIGYISYDGSNNYNPSLKSRVTISRDTSKNQFSLKLSSVTAADTAVYYCASPSPGTGYAVDYWGQGTLVTVSSGGSEGKSSGSGSESKSTGGSDIQMTQSPASLSASVGETVTITCGASENIYGSLNWYQRKQGKSPQLLIYGATNLADGMSSRFSGSGSGRQFSLKISSLHPDDVATYYCQNLLSTPYTFGGGTKLELKRTVAAPSVFIFPPSDEQLKSGTASVVCLLNNFYPREAKVQWKVDNALQSGNSQESVTEQDSKDSTYSLSSTLTLSKADYEKHKVYACEVTHQGLSSPVTKSFNRGEC
notes: Null × CD28 × Vβ17, human IgG1; also called Vβ28B33
EC50 (CD28 [1]): > 10 µg/mL | EC50 (CD28 [2]): > 10 µg/mL | EC50 (CD28 [3]): 1.4 µg/mL

B2: VB28B36 (bispecific antibody)
scFv: not shown
heavy: QVQLQQPGSELVRPGASVKLSCKASGYTFTSYWMHWVKQRHGQGLEWIGNIYPGSGRTNYDEKFKSKGTLTVDTSSRTAYMHLSSLTSEDSAVYYCTREHYGSNSHPMDYWGQGTSVTVSSASTKGPSVFPLAPSSKSTSGGTAALGCLVKDYFPEPVTVSWNSGALTSGVHTFPAVLQSSGLYSLSSVVTVPSSSLGTQTYICNVNHKPSNTKVDKKVEPKSCDKTHTCPPCPAPEAAGGPSVFLFPPKPKDTLMISRTPEVTCVVVSVSHEDPEVKFNWYVDGVEVHNAKTKPREEQYNSTYRVVSVLTVLHQDWLNGKEYKCKVSNKALPAPIEKTISKAKGQPREPQVYTLPPSREEMTKNQVSLSCAVKGFYPSDIAVEWESNGQPENNYKTTPPVLDSDGSFFLVSKLTVDKSRWQQGNVFSCSVMHEALHNRFTQKSLSLSPGK
light: not shown
notes: Null × CD28 × BCMA, human IgG1; also called Vβ28B36
EC50 (CD28 [4]): < 0.0046 µg/mL | EC50 (BCMA [5]): < 0.0046 µg/mL

B3: VB28B40 (bispecific antibody, human IgG1, kappa, L234A L235A)
scFv: DIQMTQSPSSLSASVGDRVTITCRSSQSLVHSSGNTYLHWYQQKPGKAPKFLIYKVSNRFSGVPSRFSGSGSGTDFTLTISSLQPEDFATYYCSQSTHVPFTFGQGTKLEIKGGSEGKSSGSGSESKSTGGSQVQLQESGPGLVKPSETLSLTCTVSGYSITSGYFWNWIRQPPGKGLEWIGYISYDGSNNYNPSLKSRVTISRDTSKNQFSLKLSSVTAADTAVYYCASPSPGTGYAVDYWGQGTLVTVSSEPKSSDKTHTCPPCPAPEAAGGPSVFLFPPKPKDTLMISRTPEVTCVVVSVSHEDPEVKFNWYVDGVEVHNAKTKPREEQYNSTYRVVSVLTVLHQDWLNGKEYKCKVSNKALPAPIEKTISKAKGQPREPQVYTLPPSREEMTKNQVSLWCLVKGFYPSDIAVEWESNGQPENNYKTTPPVLDSDGSFFLYSKLTVDKSRWQQGNVFSCSVMHEALHNHYTQKSLSLSPGK
heavy: not shown
light: not shown
notes: Vβ17 × null × BCMA, human IgG1; not used; also called Vβ28B40
EC50 (BCMA [6]): 0.121 µg/mL | EC50 [7]: 1.12 µg/mL | EC50 [8]: 1.21 µg/mL

B4: B17B619 (bispecific antibody, human IgG1)
heavy: QVQLQESGPGLVKPSETLSLTCTVSGYSITSGYFWNWIRQPPGKGLEWIGYISYDGSNNYNPSLKSRVTISRDTSKNQFSLKLSSVTAADTAVYYCASPSPGTGYAVDYWGQGTLVTVSSASTKGPSVFPLAPSSKSTSGGTAALGCLVKDYFPEPVTVSWNSGALTSGVHTFPAVLQSSGLYSLSSVVTVPSSSLGTQTYICNVNHKPSNTKVDKKVEPKSCDKTHTCPPCPAPEAAGGPSVFLFPPKPKDTLMISRTPEVTCVVVSVSHEDPEVKFNWYVDGVEVHNAKTKPREEQYNSTYRVVSVLTVLHQDWLNGKEYKCKVSNKALPAPIEKTISKAKGQPREPQVYVYPPSREEMTKNQVSLTCLVKGFYPSDIAVEWESNGQPENNYKTTPPVLDSDGSFALVSKLTVDKSRWQQGNVFSCSVMHEALHNRFTQKSLSLSPG
light: DIQMTQSPSSLSASVGDRVTITCRSSQSLVHSSGNTYLHWYQQKPGKAPKFLIYKVSNRFSGVPSRFSGSGSGTDFTLTISSLQPEDFATYYCSQSTHVPFTFGQGTKLEIKRTVAAPSVFIFPPSDEQLKSGTASVVCLLNNFYPREAKVQWKVDNALQSGNSQESVTEQDSKDSTYSLSSTLTLSKADYEKHKVYACEVTHQGLSSPVTKSFNRGEC
scFv-Fc: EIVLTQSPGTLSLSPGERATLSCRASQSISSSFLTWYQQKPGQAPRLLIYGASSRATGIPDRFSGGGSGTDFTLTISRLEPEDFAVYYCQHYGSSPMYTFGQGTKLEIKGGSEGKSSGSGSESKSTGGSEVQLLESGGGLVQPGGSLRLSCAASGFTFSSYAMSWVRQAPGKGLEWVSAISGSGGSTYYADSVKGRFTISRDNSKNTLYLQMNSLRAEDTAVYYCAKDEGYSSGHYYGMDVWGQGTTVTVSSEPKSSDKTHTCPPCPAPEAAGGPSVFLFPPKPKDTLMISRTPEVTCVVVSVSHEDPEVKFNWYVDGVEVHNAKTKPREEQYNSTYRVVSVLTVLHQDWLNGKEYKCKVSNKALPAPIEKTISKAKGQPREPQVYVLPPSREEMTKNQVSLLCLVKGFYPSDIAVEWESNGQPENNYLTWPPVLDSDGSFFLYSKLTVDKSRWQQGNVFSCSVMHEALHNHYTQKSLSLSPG
notes: Human IgG1; also called Vβ17-Fab×BCMA-ScFv; Vb17-B17B21-N33S-Fab-RF × BCMB519-LH-scFv; copies: 1 + 1 + 1
EC50 (BCMA [6]): 0.122 µg/mL | EC50 [7]: 0.159 µg/mL | EC50 [8]: 0.124 µg/mL

B5: VB28B7 (bispecific antibody)
heavy 1: not shown
light 1: DIQMTQSPASLSASVGETVTITCGASENIYGSLNWYQRKQGKSPQLLIYGATNLADGMSSRFSGSGSGRQFSLKISSLHPDDVATYYCQNLLSTPYTFGGGTKLELKRTVAAPSVFIFPPSDEQLKSGTASVVCLLNNFYPREAKVQWKVDNALQSGNSQESVTEQDSKDSTYSLSSTLTLSKADYEKHKVYACEVTHQGLSSPVTKSFNRGEC
heavy 2: not shown
light 2: DIQMTQSPASLSASVGETVTITCGASENIYGSLNWYQRKQGKSPQLLIYGATNLADGMSSRFSGSGSGRQFSLKISSLHPDDVATYYCQNLLSTPYTFGGGTKLELKRTVAAPSVFIFPPSDEQLKSGTASVVCLLNNFYPREAKVQWKVDNALQSGNSQESVTEQDSKDSTYSLSSTLTLSKADYEKHKVYACEVTHQGLSSPVTKSFNRGEC
notes: also called Vβ28B7; C28B19 × Null × BCMB519
EC50 (CD28 [9]): 0.06 µg/mL | EC50 (CD28 [10]): 0.1 µg/mL | EC50 (BCMA [11]): 0.1 µg/mL

B6: VB28B31 (bispecific antibody, human IgG1, kappa, L234A L235A)
scFv: not shown
heavy: QVQLQQPGSELVRPGASVKLSCKASGYTFTSYWMHWVKQRHGQGLEWIGNIYPGSGRTNYDEKFKSKGTLTVDTSSRTAYMHLSSLTSEDSAVYYCTREHYGSNSHPMDYWGQGTSVTVSSASTKGPSVFPLAPSSKSTSGGTAALGCLVKDYFPEPVTVSWNSGALTSGVHTFPAVLQSSGLYSLSSVVTVPSSSLGTQTYICNVNHKPSNTKVDKKVEPKSCDKTHTCPPCPAPEAAGGPSVFLFPPKPKDTLMISRTPEVTCVVVSVSHEDPEVKFNWYVDGVEVHNAKTKPREEQYNSTYRVVSVLTVLHQDWLNGKEYKCKVSNKALPAPIEKTISKAKGQPREPQVYTLPPSREEMTKNQVSLSCAVKGFYPSDIAVEWESNGQPENNYKTTPPVLDSDGSFFLVSKLTVDKSRWQQGNVFSCSVMHEALHNRFTQKSLSLSPGK
light: DIQMTQSPASLSASVGETVTITCGASENIYGSLNWYQRKQGKSPQLLIYGATNLADGMSSRFSGSGSGRQFSLKISSLHPDDVATYYCQNLLSTPYTFGGGTKLELKRTVAAPSVFIFPPSDEQLKSGTASVVCLLNNFYPREAKVQWKVDNALQSGNSQESVTEQDSKDSTYSLSSTLTLSKADYEKHKVYACEVTHQGLSSPVTKSFNRGEC
notes: PSMA × CD28, human IgG1; also called Vβ28B31
EC50 (PSMA [12]): 1.22 µg/mL | EC50 (PSMA [13]): 0.15 µg/mL | EC50 (CD28 [14]): 1.29 µg/mL | EC50 (CD28 [1]): 0.95 µg/mL

B7: VB28B38 (bispecific antibody, human IgG1, kappa, L234A L235A)
scFv: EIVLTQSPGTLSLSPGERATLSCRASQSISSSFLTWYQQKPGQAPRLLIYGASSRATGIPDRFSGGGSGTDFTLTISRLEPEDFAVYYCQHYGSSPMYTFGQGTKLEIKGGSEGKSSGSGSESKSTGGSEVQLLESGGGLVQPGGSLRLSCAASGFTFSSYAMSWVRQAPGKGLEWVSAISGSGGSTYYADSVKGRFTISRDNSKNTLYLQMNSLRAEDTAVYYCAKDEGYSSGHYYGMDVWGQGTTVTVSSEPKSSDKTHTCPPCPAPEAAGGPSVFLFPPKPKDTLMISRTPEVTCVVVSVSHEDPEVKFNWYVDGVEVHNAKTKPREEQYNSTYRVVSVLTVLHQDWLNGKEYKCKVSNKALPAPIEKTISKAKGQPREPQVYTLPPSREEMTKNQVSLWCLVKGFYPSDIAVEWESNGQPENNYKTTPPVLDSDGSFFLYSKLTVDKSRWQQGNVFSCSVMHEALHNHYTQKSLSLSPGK
heavy: QVQLQQPGSELVRPGASVKLSCKASGYTFTSYWMHWVKQRHGQGLEWIGNIYPGSGRTNYDEKFKSKGTLTVDTSSRTAYMHLSSLTSEDSAVYYCTREHYGSNSHPMDYWGQGTSVTVSSASTKGPSVFPLAPSSKSTSGGTAALGCLVKDYFPEPVTVSWNSGALTSGVHTFPAVLQSSGLYSLSSVVTVPSSSLGTQTYICNVNHKPSNTKVDKKVEPKSCDKTHTCPPCPAPEAAGGPSVFLFPPKPKDTLMISRTPEVTCVVVSVSHEDPEVKFNWYVDGVEVHNAKTKPREEQYNSTYRVVSVLTVLHQDWLNGKEYKCKVSNKALPAPIEKTISKAKGQPREPQVYTLPPSREEMTKNQVSLSCAVKGFYPSDIAVEWESNGQPENNYKTTPPVLDSDGSFFLVSKLTVDKSRWQQGNVFSCSVMHEALHNRFTQKSLSLSPGK
light: DIQMTQSPASLSASVGETVTITCGASENIYGSLNWYQRKQGKSPQLLIYGATNLADGMSSRFSGSGSGRQFSLKISSLHPDDVATYYCQNLLSTPYTFGGGTKLELKRTVAAPSVFIFPPSDEQLKSGTASVVCLLNNFYPREAKVQWKVDNALQSGNSQESVTEQDSKDSTYSLSSTLTLSKADYEKHKVYACEVTHQGLSSPVTKSFNRGEC
notes: BCMA × CD28, human IgG1; also called Vβ28B38
EC50 (CD28 [15]): 1.27 µg/mL | EC50 (CD28 [2]): 1.08 µg/mL | EC50 (CD28 [4]): < 0.0046 µg/mL | EC50 (BCMA [5]): < 0.0046 µg/mL
